{"source": "patent US20250179160A1", "about": "(OMEROS, published 2025)", "key": {"[1]": {"biological_target": "T1, recombinant human Pro-Factor D (human, UniProt P00746 20-253)", "T1 construct": "also used for the endogenous pro-Factor D detected in 3MC patient serum; also called pro CFD; hPro-CFD", "test": "ELISA: antibody titrated 3-fold from 3 ug/ml on plate coated with 1 ug/ml recombinant human pro-Factor D; HRP anti-mouse, rat or human secondary; OD450"}, "[2]": {"biological_target": "T2, recombinant human mature Factor D (human, UniProt P00746 26-253)", "T2 construct": "also called mature CFD; hCFD", "test": "ELISA: antibody titrated 3-fold from 3 ug/ml on plate coated with 1 ug/ml recombinant human mature Factor D; HRP anti-mouse, rat or human secondary; OD450"}, "[3]": {"biological_target": "T1, recombinant human Pro-Factor D", "test": "sandwich ELISA: coat 21H1 (human IgG4) 1 ug/ml, recombinant human pro-Factor D spiked into diluent and titrated, detection biotin goat polyclonal BAF1824 and HRP-streptavidin; OD450", "procedure": "Controls of no additional Factor D in sera were treated similarly (unspiked). Assay wells were incubated for 1 hour at room temperature then washed three times with PBST. […] After incubation and washing, HRP-tagged Streptavidin was added, incubated, and washed, followed by TMB substrate."}, "[4]": {"biological_target": "T3, recombinant human mature Factor D-His (human, UniProt P00746 26-253)", "T3 construct": "also called recombinant human mature CFD-His; not shown: His tag", "test": "ELISA: antibody titrated from 3 ug/ml on 1 ug/ml plate-immobilized His-tagged Factor D; labeled goat anti-mouse IgG Fc; OD450"}, "[5]": {"biological_target": "T4, recombinant human Pro-Factor D-His (human, UniProt P00746 20-253)", "T4 construct": "also called recombinant human Pro-CFD-His; not shown: His tag", "test": "ELISA: antibody titrated from 3 ug/ml on 1 ug/ml plate-immobilized His-tagged Factor D; labeled goat anti-mouse IgG Fc; OD450"}, "[6]": {"biological_target": "T2, recombinant human mature Factor D", "test": "sandwich ELISA: coat 3C5 (human IgG4), sample titrated (ug/ml Df), detection 14A11 (mouse IgG2a), HRP donkey anti-mouse IgG; OD450", "source_text": "(§1) An HRP-labeled F(ab′)₂ fragment donkey anti-mouse IgG H&L antibody (Jackson ImmunoResearch) was used to signal the detection antibody, followed by development with TMB substrate (ThermoFisher)."}, "[7]": {"biological_target": "T2, recombinant human mature Factor D", "test": "sandwich ELISA: coat 12H10 (human IgG4), sample titrated (ug/ml Df), detection 14A11 (mouse IgG2a), HRP donkey anti-mouse IgG; OD450", "source_text": "as §1"}, "[8]": {"biological_target": "T5, recombinant cynomolgus mature Factor D (cynomolgus monkey)", "T5 construct": "mature; not tied by words to this reagent; also called cy Mat CFD; cynomolgus recombinant mature Factor D", "test": "sandwich ELISA: coat 12H10 (human IgG4), sample titrated (ug/ml Df), detection 14A11 (mouse IgG2a), HRP donkey anti-mouse IgG; OD450", "source_text": "as §1"}, "[9]": {"biological_target": "T2, recombinant human mature Factor D", "test": "sandwich ELISA: coat 3C5 (human IgG4) 3 ug/mL, sample in 3-fold dilutions (ug/ml Df), detection 14A11 (mouse IgG2a) 3 ug/mL, HRP donkey anti-mouse IgG; OD450", "procedure": "as §1\n(§2) Wells were then washed three times. […] The plates were washed three times. 100 μL of Horseradish Peroxidase labeled F(ab′)2 Fragment Donkey anti-Mouse IgG H&L antibody (Jackson ImmunoResearch), diluted 1:30,000, was added to each well and incubated for one hour at room temperature. Wells were then washed three times."}, "[10]": {"biological_target": "T5, recombinant cynomolgus mature Factor D", "test": "sandwich ELISA: coat 3C5 (human IgG4) 3 ug/mL, sample in 3-fold dilutions (ug/ml Df), detection 14A11 (mouse IgG2a) 3 ug/mL, HRP donkey anti-mouse IgG; OD450", "procedure": "as §1, §2"}, "[11]": {"biological_target": "T6, purified (from human plasma) human Factor D (human, UniProt P00746 26-253)", "T6 construct": "also called hu purif; CFD; purified human complement factor D (Complement Technologies)", "test": "sandwich ELISA: coat 3C5 (human IgG4) 3 ug/mL, sample in 3-fold dilutions (ug/ml Df), detection 14A11 (mouse IgG2a) 3 ug/mL, HRP donkey anti-mouse IgG; OD450", "procedure": "as §1, §2"}, "[12]": {"biological_target": "T5, recombinant cynomolgus mature Factor D", "test": "sandwich ELISA standard curve: coat 3C5 (human IgG4) 3 ug/mL, recombinant cynomolgus mature Factor D titrated, detection 14A11 3 ug/mL, HRP donkey anti-mouse IgG; OD450", "source_text": "After washing, an HRP-labeled secondary antibody (HRP-labeled F(ab′)2 Fragment Donkey anti-Mouse IgG H&L antibody (Jackson ImmunoResearch)) was used to signal the detection antibody, followed by development with TMB (ThermoFisher). Samples were interpolated from a 4-parameter logistics curve of cynomolgus recombinant mature Factor D dilutions."}, "[13]": {"biological_target": "T1, recombinant human Pro-Factor D", "test": "sandwich ELISA: coat goat polyclonal AF1824; 2 ug/mL recombinant CFD spiked into buffer or 10% Factor D-depleted serum; detection with 14A11 hybridoma supernatant diluted in half, HRP goat anti-mouse IgG Fc; OD450", "procedure": "ELISA plates were coated overnight at 4° C. with polyclonal goat anti-human CFD AF1824 (R&D Systems). Plate wells were washed, blocked, and washed again. Normal human serum pool, normal human plasma pool or Factor D-depleted human serum were diluted 10-fold in assay buffer (PBS with 1% BSA and 0.05% Tween 20, PBST-BSA), either un-spiked or spiked with 2 μg/mL recombinant pro-(pro CFD) or mature-factor D (mature CFD). These matrices, including a buffer control with or without recombinant protein spiked in, were incubated for 60 minutes at room temperature, and then washed. […] The detection antibodies were incubated for one hour at room temperature and washed, then developed with a horseradish peroxidase (HRP)-labeled goat polyclonal to mouse IgG Fc (Jackson ImmunoResearch)."}, "[14]": {"biological_target": "T3, recombinant human mature Factor D-His", "test": "ELISA: antibody titrated from 3 ug/ml on 1 ug/ml plate-immobilized His-tagged Factor D; labeled goat anti-mouse IgG Fc; OD450", "remark": "listed apart in the source", "procedure": "(§3) The candidate antibodies were titrated starting at 3 μg/mL antibody binding to 1 μg/mL plate-immobilized recombinant human mature Factor D-His or recombinant human Pro-Factor D-His proteins. Bound antibodies were detected by a labeled goat polyclonal antibody specific for mouse IgG Fc (Jackson ImmunoResearch)."}, "[15]": {"biological_target": "T4, recombinant human Pro-Factor D-His", "test": "ELISA: antibody titrated from 3 ug/ml on 1 ug/ml plate-immobilized His-tagged Factor D; labeled goat anti-mouse IgG Fc; OD450", "remark": "listed apart in the source", "procedure": "as §3"}}, "note": "Where two headings read alike, the source gives them in different places.", "data": [{"binder": "21H1, purified recombinant, human IgG4 Fc (antibody, V domains shown, Mouse variable regions on human IgG4 (S228P) and human kappa constant regions; also called mAb 21H1; anti-pro Factor D-specific antibody 21H1) VH: DVQLQESGPGLVKPSQSLSLTCTVTGYSITSDYAWNWIRQFPGNKLEWMGYISYSGSTGYSPSLKSRISITRDTSKNQFFLHLNSVTTGDTATYYCARNGAMDYWGQGISVTVSS VL: DIVLTQSPASLAVSLGQRATISCKASQSVDYDGDSYMNWYQQKPGQPPKLLIYDASTLESGIPARFSGSGSGTDFTLNIHPVEEEDAATYYCQQNYEAPWTFGGGTKLEIKR", "values": [{"measurement": "EC50 (read off the curve)", "setting": "[1]", "result": "~0.02", "unit": "µg/mL"}, {"measurement": "binding result", "setting": "[2]", "result": "no binding (tested: 3 ug/ml)"}, {"measurement": "EC50 (read off the curve)", "setting": "[3]", "result": "~0.004", "unit": "µg/mL"}]}, {"binder": "12H10, recombinant purified, mouse IgG2a Fc (antibody, Mouse IgG2a and mouse kappa constant regions) heavy: EVQLVESGGGLVQPKGSLKLSCAASGFSFNTYAMNWVRQAPGKGLEWVARIRSKSNNYATYYADSVKDRFTISRDDSESMLYLQMNNLKTEDTAMYYCVRHGYYWYFDVWGTGTTVTVSSAKTTAPSVYPLAPVCGDTTGSSVTLGCLVKGYFPEPVTLTWNSGSLSSGVHTFPAVLQSDLYTLSSSVTVTSSTWPSQSITCNVAHPASSTKVDKKIEPRGPTIKPCPPCKCPAPNLLGGPSVFIFPPKIKDVLMISLSPIVTCVVVDVSEDDPDVQISWFVNNVEVHTAQTQTHREDYNSTLRVVSALPIQHQDWMSGKEFKCKVNNKDLPAPIERTISKPKGSVRAPQVYVLPPPEEEMTKKQVTLTCMVTDFMPEDIYVEWTNNGKTELNYKNTEPVLDSDGSYFMYSKLRVEKKNWVERNSYSCSVVHEGLHNHHTTKSFSRTPGK light: DVLMTQTPLSLPVSLGDQASISCRSSQSIVHSDGNTYLEWYLQKPGQSPKLLIYRVSNRFSGVPDRFSGSGSGTDFTLKISRVEAEDLGVYYCFQGSHVPYTFGGGTKLEIKRADAAPTVSIFPPSSEQLTSGGASVVCFLNNFYPKDINVKWKIDGSERQNGVLNSWTDQDSKDSTYSMSSTLTLTKDEYERHNSYTCEATHKTSTSPIVKSFNRNEC", "values": [{"measurement": "EC50 (read off the curve)", "setting": "[4]", "result": "~0.04", "unit": "µg/mL"}, {"measurement": "EC50 (read off the curve)", "setting": "[5]", "result": "~0.02", "unit": "µg/mL"}]}, {"binder": "14A11, mouse IgG2a Fc version (antibody, Recombinant, mouse IgG2a and mouse kappa constant regions; also called mAb 14A11; detection antibody 14A11 (anti-human/cyno mature-Factor D-specific)) heavy: QITLKESGPGILQSSQTLSLTCSFSGVSLTTSGMGVSWIRQPSGKGLEWLAHIYWDDEKHYHPSLKSRLTISKDASRNQVFFRILSVDTADTATYYCALRYYGYRSFMDYWGQGTSVTVSSAKTTAPSVYPLAPVCGDTTGSSVTLGCLVKGYFPEPVTLTWNSGSLSSGVHTFPAVLQSDLYTLSSSVTVTSSTWPSQSITCNVAHPASSTKVDKKIEPRGPTIKPCPPCKCPAPNLLGGPSVFIFPPKIKDVLMISLSPIVTCVVVDVSEDDPDVQISWFVNNVEVHTAQTQTHREDYNSTLRVVSALPIQHQDWMSGKEFKCKVNNKDLPAPIERTISKPKGSVRAPQVYVLPPPEEEMTKKQVTLTCMVTDFMPEDIYVEWTNNGKTELNYKNTEPVLDSDGSYFMYSKLRVEKKNWVERNSYSCSVVHEGLHNHHTTKSFSRTPGK light: DVLMTQSPLSLPVSLGDQASIFCRSNQSIVHSNGNTYFEWYLQKPGQSPKLLIYKVSNRFSGVPDRFSGSGSGTDFTLRISRVEAEDLGIYYCFQGSHVPPTFGGGTKLEIKRADAAPTVSIFPPSSEQLTSGGASVVCFLNNFYPKDINVKWKIDGSERQNGVLNSWTDQDSKDSTYSMSSTLTLTKDEYERHNSYTCEATHKTSTSPIVKSFNRNEC", "values": [{"measurement": "EC50 (read off the curve)", "setting": "[6]", "result": "~0.02", "unit": "µg/mL"}, {"measurement": "EC50 (read off the curve)", "setting": "[7]", "result": "~0.04", "unit": "µg/mL"}, {"measurement": "EC50 (read off the curve)", "setting": "[8]", "result": "~0.08", "unit": "µg/mL"}, {"measurement": "EC50 (read off the curve)", "setting": "[9]", "result": "~0.03", "unit": "µg/mL"}, {"measurement": "EC50 (read off the curve)", "setting": "[10]", "result": "~0.06", "unit": "µg/mL"}, {"measurement": "EC50 (read off the curve)", "setting": "[11]", "result": "~0.04", "unit": "µg/mL"}, {"measurement": "EC50 (read off the curve)", "setting": "[12]", "result": "~0.06", "unit": "µg/mL"}]}, {"binder": "14A11, hybridoma supernatant (antibody, V domains shown, Mouse hybridoma antibody) VH: QITLKESGPGILQSSQTLSLTCSFSGVSLTTSGMGVSWIRQPSGKGLEWLAHIYWDDEKHYHPSLKSRLTISKDASRNQVFFRILSVDTADTATYYCALRYYGYRSFMDYWGQGTSVTVSS VL: DVLMTQSPLSLPVSLGDQASIFCRSNQSIVHSNGNTYFEWYLQKPGQSPKLLIYKVSNRFSGVPDRFSGSGSGTDFTLRISRVEAEDLGIYYCFQGSHVPPTFGGGTKLEIKR", "values": [{"measurement": "binding result", "setting": "[13]", "result": "no binding"}]}, {"binder": "3C5, recombinant purified, mouse IgG2a Fc (antibody, Mouse IgG2a and mouse kappa constant regions) heavy: EVKLVESGGGLVQPGGSLKLSCATSGFTFSDYGMAWVRQAPGKGPEWVAFISNLAYSFYYVDIVMGRFTISRENAKNTLYLEMSSLRSEDTAMYYCARVGLYGNFFMDYWGQGTSVTVSSAKTTAPSVYPLAPVCGDTTGSSVTLGCLVKGYFPEPVTLTWNSGSLSSGVHTFPAVLQSDLYTLSSSVTVTSSTWPSQSITCNVAHPASSTKVDKKIEPRGPTIKPCPPCKCPAPNLLGGPSVFIFPPKIKDVLMISLSPIVTCVVVDVSEDDPDVQISWFVNNVEVHTAQTQTHREDYNSTLRVVSALPIQHQDWMSGKEFKCKVNNKDLPAPIERTISKPKGSVRAPQVYVLPPPEEEMTKKQVTLTCMVTDFMPEDIYVEWTNNGKTELNYKNTEPVLDSDGSYFMYSKLRVEKKNWVERNSYSCSVVHEGLHNHHTTKSFSRTPGK light: DIQMNQSPSSLSASLGDTITITCHASQNINVWLSWYQQKPGNIPELLIYKASNLHTGVPSRFSGNRSGTSFTLTISSLQPEDIGTYFCQQGQSYPLTFGAGTKLELRRADAAPTVSIFPPSSEQLTSGGASVVCFLNNFYPKDINVKWKIDGSERQNGVLNSWTDQDSKDSTYSMSSTLTLTKDEYERHNSYTCEATHKTSTSPIVKSFNRNEC", "values": [{"measurement": "EC50 (read off the curve)", "setting": "[14]", "result": "~0.06", "unit": "µg/mL"}, {"measurement": "EC50 (read off the curve)", "setting": "[15]", "result": "~0.04", "unit": "µg/mL"}]}]}
